A short description of the data set: soluble on expression in E. coli; label from the status in PepcDB or PDB records.
Turning to “MALREFSSVKVGDQLPEKTYPLTRQDLVNYAGVSGDLNPIHWDDEIAKVVGLDTAIAHGMLTMGIGGGYVTSWVGDPGAVTEYNVRFTAVVPVPNDGKGAELVFNGRVKSVDPESKSVTIALTATTGGKKIFGRAIASAKLA”, the “soluble on expression in E. coli” value was “soluble”.

Take “MEKFDVIIIGAGPAGLFAAYELVERSNMKVLIIDEGGDVDQRVCPMDQLGYCIGCKPCHIMSGVGGAGGLSDGTVNLRPDIGGDLTELTNDENYSWQLVWEVDQILLKHGAPRNLYKGDPDQIRYWERKAAQAGVKFIPIIQRHIGSDNTPRVIKSIKQYLESKGVKFLLWTKALEFNKGWVKVRRGKDVFTIEGKYIIVAPGRGGAEWFHEIAQKIGLKARHGPIDVGVRVEVPAIIMEPITSINHDPKFHIYTDTYDDFVRTFCTNPYGFVVEERYDGYVGVNGHSMRNKKSNNTNFAFLTRIELTEPVEDTTAYGRSIAQLATTIGGGRPILQRLGDLRRGRRSTWSRIRKSNVEPTLKHVTPGDIAMALPHRVVTNIIEGLEKLDKVIPGVASDHTLLYAPEIKYYAMKVEVNELLETSIENVFAAGDGAGLSRDIVNAAATGIMAARGILVKEGLYNLKDFKKPGNWKEKIESLEPEELEHHHHHH”: the “soluble on expression in E. coli” value is “soluble”. For “MSCIAAIAAAEGTGSRMAYVSLPRRLVTLLMISTVMVSCSAEGLVPPAEVDGTTRVSAIRSSRQQGYSAPSGAVNQVERAGQGADYPSTMSQPMPEPYASQDPLLQSPQAGQGYSTLDSQHQARMAASGHTNMPAQPMQSQTMQSQTMQAQTMQAQTMPGQQLASNQNAEGEGGVNMDSMLGVEPVRGLAEEQDADIAEGASAQPVVDGIGTDNPVAVSPPRRQQGASQSRLIPPPPVGSSSRRQPVEEVAMLMPNDPMAGGPMQSNRSMPPGVMPSSEVACRSELRRLGVAFRDVARIADGPTCGIDYPIELSGLASGVAIRPAVKLNCQVTLAFAKWVKFELVPSSRFRYLSGVGRITPMGGYSCRKMNSRSSNPWSEHARGNAIDIGTITLKNGKEIDVRSKSFFAFREKALLKAVRSDSCKYFSTVLGPGSDPNHWNHFHFDLRTRKSGYRHCD”, the “soluble on expression in E. coli” value was “not soluble”. The same measure for “MSYTAHEAQAALAPQFDAYSKAIEGSDWDTVATFYHPNGVIVQKGKEAFYGKDAIKAELLKFSEATGRSTSSFSNQKYEGAGDYLIITADFSSETEKAGTVKGKFVQIWKKEGDRHLIYHDEFEVNP”: “not soluble”; for “MAHHHHHHMMSSASLLEKVPQPWAALVRPFLQRSHEFEDKEPLVAYYLRTHVAFLCMRQRSKEDKDGTAFLMTLLDALEASKARLGAQLQGIDGRTVLTKFALMLFARADDAERTGNASMAIVRLFYTASVLFEATAQFTDDGAMDAVAAQKSKYAKYIATRMKKALDKNEPYVSPNKLETADDDAAGGVGGVNGAGPATTFTTAPASCFMRPTSQPTSVSNRAPAPTTAHENLPALPYAPPPVTQKLDTPPPPPHTPDADTQGRSKTPVHPSPMKNTYAPPQPQHTSQQQQWLSTSSAVPSLPPTPSSAQQRYAAPSSAGGGVGATGFKPSVDQMIDAQKLASQAVSALQFYDYENAKQQLVASLRVLNGVQ”: “soluble”; for “MGSDKIHHHHHHMKLLSVVKIWDRGDHNAFTDLIRFDGKLYCAFREGSAHVSPDGALRILVSEDDGSSWKEAALIKLDEGDLRDARLLVWLGELYLFGARAIAGEPLQSLMWRSSDGCRWQAAEHCADTGYWLWRVIADNNEQSVSRAPALYGVAYRPGPDGDVRLYRAAPQGPLKGTDFIPLVAALNSEGYVNETGLEITDGIFTCLLRRDPVWDDRRNGLLGKAKAPFMDWQWLELDCRIGGPVVFRWCNRLLAIVRLYDEKVRTSLVEICETTGHVAEHLSLPSGGDTSYAGVVMEHSVKGDELKVSYYSSHEGKTAIYFAAIRLE”: “not soluble”. The value for “MGSDKIHHHHHHMIKIKKSEDCCGCSACLSICNHNAIVFKEDVEGFKYPMIEEGKCINCGLCEMACPILYRKVKDIRPTPKAYFAARHKNIVTLRNSSSGGAFTAIAGSVIELGGVVCGVEYDNDGVVRHSFSETMEGIRSFMGSKYVQSEIQGVYNQIKTYLKSDRWVLFTGSPCQVEGLKLFLRKPYENLLTVDLVCHAVPSPLIYKQYINMCSTKLGQKVMSINMRYKQTYGWSHRFSYCFYFENGQKAVDPVWVVNWGKIFFSQMINRPSCHSCKYSNLDRPGDFTIADFWDDKKNRPDLYSCEGTSLLMVNTNMGLDLINKLYDSIDLWKITKDEAMQPCLIRPTCSNQRRQEFWEFYLLRGFDAAYKKYFGDSKYVITKKIVKQIIKRVLRKLQ” was “not soluble”; that for “MGHNDELIRNKSAFASEMSDAAAIVQYADKNSLVVLDELARSTSTEEGIAITYAICEKVLKLHSYTFLATHFLDIAALANYSNAIDNYHFLPQIDDNSTKKHKLLRG” was “not soluble”; that for “MNRILLYVHFNKYNKISAHVYYQLEQMRSLFSKIVFISNSKVSHEDLKRLKNHCLIDEFLQRKNKGFDFSAWHDGLITMGFDKLEEFDSLTIMNDTCFGPIWEMAPYFENFEEKKAVDFWGITNNRGTKAFKEHVQSYFMTFKNQVIQNKVFQQFWQSIIEYENVQEVIQHYETQLTSILLNEGFSYQTVFDTRKAESSFMPHPDFSYYNPTAILKHHVPFIKVKAIDANQHIAPYLLNLIRETTNYPIDLIVSHMSQISLPDAKYLLSQKYLNCQRLAKQTCQKVAVHLHVFYVDLLDEFLTAFEDWNFHYDLFITTDSDIKRKEIKEILQRKGKTADIRVTGNRGRDIYPMLLLKDKLSQYDYIGHFHTKKSKEADFWAGESWRKELIDMLVKPADSILSAFETDDIGIIIADIPSFFRFNKIVNAWNEHLIAQEMMSLWRKMDVKKQIDFQAMDTFVMSYGTFVWFKYDALKSLFDLELTQNDIPSEPLPQNSILHAIERLLVYIAWGNSYDFRIVKNPYELTPFIDNKLLNLREDEGAHTYVNFNQMGGIKGALKYIIVGPAKAMKYIFLRLMEKLKLEHHHHHH” was “soluble”. With “GELDPVVTWGTTPGQGIGIDDPIPEPEDLADDKVDTARRAQKHMRVEPGETMEGYDIDVAFLGSCTNARLPDLRRAARIVKGREVADDVRAFVVPGSQRVQRAAEEEGLKDIFEEAGFEWRNAGCSMCLGMNEDQLEGDEACASSSNRNFVGRQGSKDGRTVLMNPRMVAAAAITGEVSDVRDLKEVTLA”, the “soluble on expression in E. coli” value is recorded as “not soluble”. The same measure for “MVNLDAEIYEHLNKQIKINELRYLSSGDDSDTFLCNEQYVVKVPKRDSVRISQKREFELYRFLENCKLSYQIPAVVYQSDRFNIMKYIKGERITYEQYHKLSEKEKDALAYDEATFLKELHSIEIDCSVSLFSDALVNKKDKFLQDKKLLISILEKEQLLTDEMLEHIETIYENILNNAVLFKYTPCLVHNDFSANNMIFRNNRLFGVIDFGDFNVGDPDNDFLCLLDCSTDDFGKEFGRKVLKYYQHKAPEVAERKAELNDVYWSIDQIIYGYERKDREMLIKGVSELLQTQAEMFIF”: “soluble”; for “MSLDTVVKVGFAAPLTGPNANYGKDLENGVKMALDDAKAQGVKINGQPVTFQLVAEDDQADPRIGVQVAQKLIDEGVSVVVGHFNSGTTIPASNLYEKAGLPDIDPAATNPTISSRGFKNMFMVISSDAQNAGTAGAYAVETTKAKRIAVIDDRTAFGQGEADEFVKAVKAHGGDIIDREYTTNQATDFKTQLTNLKAKNPDLIFVGALNPQAAGIMKQMNQLGIKAQYVGGGGVKDIDFIKLAGDVSEGAMAWEYGRPLDSTPVGAKFAERFKQKFGEDVLSYAPFGYDAAWAAIKAMQAANSTKPDDYRSKLQSISFEGITGHIEFNANGSLKNGSSTVYQVKNGQWVTVKTVSGEGHHHHHH”: “soluble”; for “MYRVFECFDELIDILEKSTGVPMTSNCMVPRHHMLALIDEARNALPNEIDDAQDVIDQQDEILRGAQERARTTIDEANEEARRTVTQSREEADALVADAEEHAERVVRQAQDEADRLVDGARREADDTVNRAQAEAERLIASGNDQYQRSVDDGLAEQQRLVSEAEVVRRANEEAHRVVDAAHADSNRLRKECDTFVENKLADLEESLSSTLRTISRDRAALRRGAGASGGGNHSQS”: “not soluble”.

(Values after the DeepSol protein solubility set.)
